The record followed here is article PMC10183829, “Shuffled ATG8 interacting motifs form an ancestral bridge between UFMylation and autophagy” (The EMBO Journal, 2023).

The target in test [1] is GST-GABARAP (UniProt O95166). Nature of the test: microscopy-based protein-protein interaction assay (on-bead binding, confocal). The following applies: 1 μM C53 protein; glutathione-sepharose beads with GST-GABARAP; parent: est. 1.0; read off a plot.
In test [2] the target is GST-ATG8A (Arabidopsis thaliana) (UniProt Q8LEM4). Nature of the test: microscopy-based on-bead protein-protein interaction assay.
Chain of GST-ATG8A (Arabidopsis thaliana) (Q8LEM4 1-117): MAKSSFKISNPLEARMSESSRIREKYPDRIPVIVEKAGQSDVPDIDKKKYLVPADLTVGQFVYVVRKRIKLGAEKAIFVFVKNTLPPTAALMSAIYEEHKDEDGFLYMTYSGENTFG

Chain of GST-GABARAP (O95166 whole entry): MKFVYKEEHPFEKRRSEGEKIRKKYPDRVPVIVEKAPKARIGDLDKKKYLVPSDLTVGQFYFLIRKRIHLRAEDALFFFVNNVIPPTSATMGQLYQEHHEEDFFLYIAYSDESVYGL

Take “mCh-AtC53, Q9FG23 IDWD274WDDI; IDWD285WDDI; IDWD333WDDI”: the response (normalized fluorescence) in test [1] was found to be 1.4.
As to “mCh-AtC53^cAIM (IDWD274WDDI, IDWD285WDDI, IDWD333WDDI) (natural protein)”, in test [2], the percent more efficiently recruited than the wild type came to 22%.
